Experimental data published in article PMC9245421, “The VvWRKY37 Regulates Bud Break in Grape Vine Through ABA-Mediated Signaling Pathways”.
Numbering of substitutions follows the chain as printed.

T1: VvABF2-HIS (grape vine, UniProt F6H1D1 1-447)
T1 sequence: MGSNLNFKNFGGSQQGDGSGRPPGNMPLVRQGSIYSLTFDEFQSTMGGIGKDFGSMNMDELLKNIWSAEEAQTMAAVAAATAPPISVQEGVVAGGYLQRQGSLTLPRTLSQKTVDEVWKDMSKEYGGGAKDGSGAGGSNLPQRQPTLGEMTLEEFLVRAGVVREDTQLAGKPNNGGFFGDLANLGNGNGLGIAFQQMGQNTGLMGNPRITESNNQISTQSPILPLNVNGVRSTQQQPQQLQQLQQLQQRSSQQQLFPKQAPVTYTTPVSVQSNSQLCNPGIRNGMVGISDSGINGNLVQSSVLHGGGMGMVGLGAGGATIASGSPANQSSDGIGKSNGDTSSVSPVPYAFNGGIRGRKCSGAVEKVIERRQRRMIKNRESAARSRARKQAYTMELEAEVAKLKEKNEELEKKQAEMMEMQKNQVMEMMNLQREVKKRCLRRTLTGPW

T2: VvABI5-HIS (grape vine, UniProt F6HQA3 1-409)
T2 sequence: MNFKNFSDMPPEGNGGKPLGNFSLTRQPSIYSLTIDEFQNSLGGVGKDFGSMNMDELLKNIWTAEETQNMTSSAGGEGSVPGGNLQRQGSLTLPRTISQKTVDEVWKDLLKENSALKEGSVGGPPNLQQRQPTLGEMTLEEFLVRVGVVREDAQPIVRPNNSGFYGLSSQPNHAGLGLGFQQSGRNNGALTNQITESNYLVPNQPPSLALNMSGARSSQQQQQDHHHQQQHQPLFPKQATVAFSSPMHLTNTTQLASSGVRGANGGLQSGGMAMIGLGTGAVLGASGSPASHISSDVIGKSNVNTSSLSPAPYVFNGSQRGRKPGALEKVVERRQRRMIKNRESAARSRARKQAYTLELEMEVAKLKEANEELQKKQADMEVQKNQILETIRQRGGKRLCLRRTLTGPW

B1: W37-P2 (dsDNA)
DNA 1: TCCAAATGCTTTCACGTAATTTCATTTGTT
DNA 2: AACAAATGAAATTACGTGAAAGCATTTGGA
B2: W37-mP2 (dsDNA)
DNA 1: B1 DNA 1 with C13A, G16A, A18G
DNA 2: B1 DNA 2 with T13C, C15T, G18T
B3: W37-P1 (dsDNA)
DNA 1: CTCTCTCCCACGTGCCGACCTCACACGTGTTAGCCTCAT
DNA 2: ATGAGGCTAACACGTGTGAGGTCGGCACGTGGGAGAGAG

Assays:
VvABF2-HIS [1] = target: T1, VvABF2-HIS; assay: EMSA; EMSA: 2 ul of 5x buffer (50% glycerol, 50 mM MgCl2, 5 mM EDTA, 10 mM DTT, 500 mM KCl, 250 mM HEPES pH 7.4) in 10 ul, i.e. 1x = 10% glycerol, 10 mM MgCl2, 1 mM EDTA, 2 mM DTT, 100 mM KCl, 50 mM HEPES; 1 ul of 0.05 uM biotin probe; 24 C, 20 min; 6% native gel, 0.5x TBE; settings: protein: recombinant; tags: His (pET32a); label: biotin; blunt
VvABI5-HIS [2] = target: T2, VvABI5-HIS; assay: as above; settings: protein: recombinant; tags: His (pET32a); label: biotin; blunt
VvABF2-HIS [3] = target: T1, VvABF2-HIS; assay: competition; 100-fold unlabeled vs W37-P2; EMSA: 2 ul of 5x buffer (50% glycerol, 50 mM MgCl2, 5 mM EDTA, 10 mM DTT, 500 mM KCl, 250 mM HEPES pH 7.4) in 10 ul, i.e. 1x = 10% glycerol, 10 mM MgCl2, 1 mM EDTA, 2 mM DTT, 100 mM KCl, 50 mM HEPES; 1 ul of 0.05 uM biotin probe; 24 C, 20 min; 6% native gel, 0.5x TBE; settings: protein: recombinant; tags: His (pET32a); blunt
VvABI5-HIS [4] = target: T2, VvABI5-HIS; assay: as above; settings: protein: recombinant; tags: His (pET32a); blunt

Row | Binder | binding result (VvABF2-HIS [1]) | binding result (VvABI5-HIS [2]) | binding result (VvABF2-HIS [3]) | binding result (VvABI5-HIS [4])
1 | B1 | binds | binds | – | –
2 | B2 | – | – | no binding | no binding
3 | B3 | no binding | no binding | – | –
